Experimental data published in paper PMC3649970, “A Unique Spumavirus Gag N-terminal Domain with Functional Properties of Orthoretroviral Matrix and Capsid” (PLoS Pathogens, 2013).
Changes are numbered by the printed parent chain. Ends that are not written are not given here.

T1: PFV-Gag-NtD (Human spumaretrovirus, UniProt P14349)
T1 construct: HFV ht-(M1-S179); made in house; host or cells: E. coli Rosetta 2 (DE3)
T1 sequence (P14349 1-179): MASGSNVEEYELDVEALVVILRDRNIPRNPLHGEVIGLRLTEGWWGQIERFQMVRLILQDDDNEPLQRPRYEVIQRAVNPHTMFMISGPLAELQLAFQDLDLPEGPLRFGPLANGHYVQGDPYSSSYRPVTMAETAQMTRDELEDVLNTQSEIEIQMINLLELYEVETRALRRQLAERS

T2: PFV-Gag-NtD (amino terminal domain of Prototypic Foamy Virus Gag, residues 1-179) (Prototypic foamy virus (PFV), UniProt P14349 1-179)
T2 chain: T1 sequence (P14349 1-179)

B1: PFV-Gag-NtD (amino terminal domain of Prototypic Foamy Virus Gag, residues 1-179) (domain or fragment)
chain: T1 sequence (P14349 1-179)
notes: source: E. coli Rosetta 2 (DE3), purified (Ni-NTA, Superdex 200 SEC); not shown: His-tag, N-terminal, kept
B2: PFV-Gag-NtD: PFV-Gag residues 1–179, N-terminal His-tag fusion expressed in E. coli (protein, UniProt P14349 1-179, looked up, fragment)
chain: T1 sequence (P14349 1-179)
modifications: N-terminal His-tag
notes: PFV-Gag residues 1–179, N-terminal His-tag fusion expressed in E. coli
B3: Asn29 to glutamine (protein, UniProt P14349 1-179, looked up, variant N29Q)
chain: T1 sequence (P14349 1-179) with N29Q
modifications: N-terminal His-tag
B4: triple substitution where Val14, Val18 and Leu21 were all substituted by serine (protein, UniProt P14349 1-179, looked up, variant V14S V18S L21S)
chain: T1 sequence (P14349 1-179) with V14S, V18S, L21S
modifications: N-terminal His-tag
B5: Val14/Leu21 to serine (protein)
chain: T1 sequence (P14349 1-179) with V14S, L21S
modifications: left off: His-tag, N-terminal, state not stated
B6: PFV Env leader peptide residues 5-18 (peptide)
peptide: MTLQQWIIWKKMNK
notes: source: synthetic peptide, bought HPLC purified: Pepceuticals Ltd
B7: FFV-Gag-NtD: FFV Gag residues 1–154, N-terminal His-tag fusion expressed in E. coli (protein, UniProt O56860 1-154, looked up, fragment)
chain: MARELNPLQLQQLYINNGLQPNPGHGDIIAVRFTGGPWGPGDRWARVTIRLQDNTGQPLQVPGYDLEPGIINLREDILIAGPYNLIRTAFLDLEPARGPERHGPFGDGRLQPGDGLSEGFQPITDEEIQAEVGTIGAARNEIRLLREALQRLQA
modifications: N-terminal His-tag
notes: FFV Gag residues 1–154, N-terminal His-tag fusion expressed in E. coli

Tests used:
[1] = molecular target: FFV Env leader peptide 1-30 (Feline foamy virus) (UniProt O56861); test: given as Ka; settings: cited from earlier work
[2] = molecular target: FFV-Gag-NtD (feline foamy virus Gag residues 1-154), His tag removed (feline foamy virus (FFV)); test: AUC
[3] = molecular target: T1, PFV-Gag-NtD; test: ITC binding of Env1–20 to PFV-Gag-NtD; design: species or system Prototypic Foamy Virus (PFV); settings: 1 mM Env peptide injected into 50 µM PFV-Gag-NtD, 25 mM Na-phosphate pH 6.55, 100 mM NaCl, 0.5 mM TCEP, read-out: equilibrium association constant (K) (converted)
Source text: The DNA sequences coding for PFV-Gag residues 1–179 (PFV-Gag-NtD) and FFV residues 1–154 (FFV-Gag-NtD) were amplified by PCR from template plasmids pcziGag4 and pcDWF003 containing the PFV and FFV Gag genes respectively. PCR products were inserted into a pET47b expression vector (Novagen) using ligation independent cloning in order to produce N-terminal His-tag fusions with 3C protease cleavage sites. The correct sequence of expression constructs was verified by automated DNA sequencing (Beckman Coulter Genomics). His-tagged PFV- and FFV-Gag-NtD were expressed in the E. coli strain Rosetta 2 (DE3) and purified using Ni-NTA affinity (Qiagen) and size exclusion chromatography on Superdex 200 (GE healthcare). Selenium was incorporated into PFV-Gag-NtD by replacement of methionine with seleno-methionine in defined culture medium and by inhibition of methionine biosynthesis just prior to IPTG induction. Verification of the processed N-terminal methionine, correct molecular mass and degree of selenium incorporation was obtained by electrospray ionisation mass-spectrometry. Peptides comprising residues 1–20 and 5–18 from the PFV-Env leader region were purchased HPLC purified from Pepceuticals Ltd.
ITC was carried out using an ITC-200 calorimeter (MicroCal). […] Data was analysed using the Origin-based software provided by the manufacturers.

[4] = molecular target: FFV-Gag-NtD (feline foamy virus Gag residues 1-154), His-tagged (feline foamy virus (FFV)); test: AUC
[5] = molecular target: FFV-Gag-NtD (feline foamy virus Gag residues 1-154), His-tagged (feline foamy virus (FFV)); test: SEC-MALS
[6] = molecular target: the molecule itself; test: SEC-MALS
[7] = SEC-MALLS solution molecular weight of Gag-NtDs; type: physicochemical; settings: Superdex 200 10/300 GL, 20 mM Tris-HCl, 150 mM NaCl, 0.5 mM TCEP, pH 8.0; 12-1.5 mg/ml, concentration invariant
Protocol: Size exclusion chromatography coupled multi-angle laser light scattering (SEC-MALLS) was used to determine the molar mass of FFV- and PFV-Gag-Ntd. Samples ranging from 1.5 to 12.0 mgml^−1 were applied in a volume of 100 µl to a Superdex 200 10/300 GL column equilibrated in 20 mM Tris-HCl, 150 mM NaCl and 0.5 mM TCEP, pH 8.0, at a flow rate of 0.5 ml/min. The scattered light intensity and the protein concentration of the column eluate were recorded using a DAWN-HELEOS laser photometer and OPTILAB-rEX differential refractometer respectively. The weight-averaged molecular mass of material contained in chromatographic peaks was determined from the combined data from both detectors using the ASTRA software version 6.0.3 (Wyatt Technology Corp., Santa Barbara, CA, USA).

[8] = Sedimentation velocity AUC of Gag-NtDs; type: physicochemical; settings: for ƒ/ƒ0 (D20,w): frictional ratio calculated from D20,w; for ƒ/ƒ0 (D20,w) / ƒ/ƒ0 (S20,w): discrete component analysis; for ƒ/ƒ0 (S20,w): frictional ratio calculated from S20,w; for sedimentation coefficient S20,w: no concentration dependency over the range measured; for D20,w (×10^7) / Mw C(S) / S20,w (×10^13): sedimentation velocity; for D20,w (×10^7) / S20,w (×10^13): 293 K, pH 7.5, Crange 20–90 µM (PFV), 30–130 µM (FFV); for Mw C(S): C(S) analysis; for S20,w (×10^13): discrete component analysis, 50,000 rpm; for Mw (S/D): weight averaged molecular weight from discrete component analysis; for ƒ/ƒ0 C(S): weight-averaged frictional ratio from best fit C(S) distribution function
Protocol: (§1) Sedimentation velocity experiments were performed in a Beckman Optima Xl-I analytical ultracentrifuge using conventional aluminium double sector centrepieces and sapphire windows. Solvent density and the protein partial specific volumes were determined as described. Prior to centrifugation, samples were prepared by exhaustive dialysis against the buffer blank solution, 20 mM Tris-HCl, 150 mM NaCl and 0.5 mM TCEP, pH 7.5. Centrifugation was performed at 50,000 rpm and 293 K in an An50-Ti rotor. Interference data were acquired at time intervals of 180 sec at varying sample concentration (0.5–2.5 mg/ml). Data recorded from moving boundaries was analysed using both a discrete species model and in terms of the size distribution functions C(S) using the program SEDFIT [90], [91], [92]. For analysis of Env peptide binding, sedimentation velocity experiments were conducted in 3 mm pathlength centrepieces using equimolar mixtures (75 µM) of PFV-Gag-NtD and Env peptides. In these experiments, radial absorbance scans at 280 nm were also recorded along with the interference data.

[9] = Sedimentation equilibrium AUC of Gag-NtDs; type: physicochemical; settings: for weight averaged molecular weight, sedimentation equilibrium: multispeed, global fit with single ideal molecular species model; for Mw (sedimentation equilibrium): weight averaged, Global SE analysis, pH 7.5
Protocol: Sedimentation equilibrium experiments were performed in a Beckman Optima XL-I analytical ultracentrifuge using charcoal filled Epon six-channel centrepieces in an An-50 Ti rotor. Prior to centrifugation, samples were dialyzed exhaustively against the buffer blank, 20 mM Tris-HCl, pH 7.5, 150 mM NaCl, 0.5 mM TCEP. After centrifugation for 18 h, interference data was collected 2-h intervals until no further change in the profiles was observed. The rotor speed was then increased and the procedure repeated. Data were collected on samples of different concentrations of FFV- and PFV-Gag-NtD (14–100 µM) at three speeds and the program SEDPHAT [93], [94] was used to determine weight-averaged molecular masses by nonlinear fitting of individual multi-speed equilibrium profiles (A versus r) to a single-species ideal solution model.

[10] = system: PFV Env leader peptide (Env-LP), Env1–20; test: SV-AUC binding of PFV-Gag-NtD mutants to Env1–20 (Env-LP); design: species or system Prototypic Foamy Virus (PFV); settings: for Gag-Env binding (in words): 75 µM equimolar Gag-NtD mutant and Env1–20
Protocol: as §1
Data were analysed using a general binding expression, Eq. 1. This expression relates the association constant Ka to the fraction of bound peptide θ (θ = [PL]/[Lt]) in terms of the total concentrations of peptide [Lt] and protein [Pt] and is a modification of the formulae employed in [95], [96]. [drawing 1] (1) In sedimentation velocity experiments θ was determined from the integrated absorbance of the 3S species in the C(S) function that best fits the sedimentation data. As equimolar ratios of peptide and protein were employed ([Lt] = [Pt]) Eq. 1 can be simplified and equilibrium association constants determined from Eq. 2. [drawing 2] (2)

[11] = molecular target: T2, PFV-Gag-NtD (amino terminal domain of …); test: AUC
[12] = molecular target: B1; test: AUC; sedimentation velocity of 75 µM equimolar mixtures of Gag-NtD and Env peptide, absorbance at 280 nm; bound fraction from the integrated absorbance of the 3S species in C(S); settings: both partners purified

FFV Gag (from UniProt O56860)
Kd [1]: 15.4 µM

FFV-Gag-NtD (feline foamy virus Gag residues 1-154), His tag removed (domain or fragment)
stoichiometry N [2]: 2

MAPPMTLQQWIIWKKMNKAH [Env1–20]
Kd [3]: 6.67 µM

FFV-Gag-NtD (feline foamy virus Gag residues 1-154), His-tagged (domain or fragment)
stoichiometry N [4]: 2
stoichiometry N [5]: 2

B1
stoichiometry N [6]: 2

B2
solution molecular weight (SEC-MALLS) [7]: 40.0 kDa
ƒ/ƒ0 (D20,w) [8]: 1.52
ƒ/ƒ0 (S20,w) [8]: 1.48
sedimentation coefficient S20,w [8]: 3.08
D20,w (×10^7) [8]: 5.96±0.04 cm^2 sec^−1
Mw C(S) [8]: 48.2±1 kD
S20,w (×10^13) [8]: 3.08±0.02 sec
Mw (S/D) [8]: 46.7±0.2 kD
ƒ/ƒ0 C(S) [8]: 1.54
weight averaged molecular weight, sedimentation equilibrium [9]: 44 kDa
Mw (sedimentation equilibrium) ([9]; Crange 30–100 µM, His-tagged): 44±2 kD

B3
Gag-Env binding (in words) [10]: little effect on Env binding

B4
Gag-Env binding (in words) [10]: reduced binding to an undetectable level

B5
reduction of Gag-Env affinity (fold) ([10]; 75 µM equimolar Gag-NtD mutant and Env1–20, relative to wt PFV-Gag-NtD): twenty-fold

B6
Kd [11]: 49.4 µM
Ka [12]: 20000 M⁻¹

B7
solution molecular weight (SEC-MALLS) [7]: 34.0 kDa
ƒ/ƒ0 (D20,w) [8]: 1.42
ƒ/ƒ0 (S20,w) [8]: 1.49
sedimentation coefficient S20,w [8]: 2.72
D20,w (×10^7) [8]: 6.81±0.3 cm^2 sec^−1
Mw C(S) [8]: 37.4±1 kD
S20,w (×10^13) [8]: 2.72±0.01 sec
Mw (S/D) [8]: 36.1±1.5 kD
ƒ/ƒ0 C(S) [8]: 1.47
weight averaged molecular weight, sedimentation equilibrium [9]: 33.7 kDa
Mw (sedimentation equilibrium) ([9]; Crange 14–50 µM, FFV-154 sample with the His tag removed): ^h33.7±1 kD
